The subject of the series is MS2 coat protein. As to the kind of experiment: apparent KD of MS2 coat protein; designed switch direction (-1 OFF switch, 1 ON switch): -1; higher = weaker reporter binding. Summed up:
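Transcription of designed RNA switches on Illumina chips was done by stalled E. coli RNA polymerase. SNAP-549-labelled MS2 coat protein was then titrated in doubling steps from 0.7 or 1.5 nM to 3 µM, with steps of 0.8–1.5 h at the lowest and 10–20 min at the highest concentration. The per-design median over clusters of curve-fitted normalised fluorescence is reported as apparent KD.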

Setting [1] is: input ligand: microRNA oligo, concentration not stated.

Consider “ACAUGAGGAUCACCCAUGUAAUGAUGGGUACUAUAUUAUUCGUAGGAUAUCGUUGUUAGUUUGUGCGAGAAGGACGAUUGCUUU [JR_ExcNG3_Sub057] (Eterna round: R96, puzzle: Exclusion NG 3)”, for which, under setting [1], the “apparent KD of MS2 coat protein” value was 733 nM.

Take “ACAUGAGGAUCACCCAUGUACACGUAAUGGCUCAUGUAGAGUCAGGAUAUGCGUGGCGAACUCGCGCAGAAGGGACAAGACUGG [Deportation 21 - Jieux - Exclusion NG 3] (Eterna round: R96, puzzle: Exclusion NG 3)”: the “apparent KD of MS2 coat protein” value reads like this: (input ligand: FMN 200 uM) 27.1 nM; under setting [1], 18.6 nM; (input ligand: none) 23 nM.

For “ACAUGAGGAUCACCCAUGUACACGUAAUGGCUCAUGUAGAGUGAGGAUAUGUGUGACGAACGAGCACAGAAGGCACAAGACUGG [Deportation 12 - Jieux - Exclusion NG 3] (Eterna round: R96, puzzle: Exclusion NG 3)”, the “apparent KD of MS2 coat protein” value turned out to be 51.8 nM (input ligand: FMN 200 uM), 39.8 nM under setting [1] and 40.2 nM (input ligand: none).

Take “ACAUGAGGAUCACCCAUGUACAGGGUUUAGUUUCAUUGUUUGAAGGAUAUACUUAGUUAGUUGUUGUAGAAGGUCAUAUUUUAU [JR_ExcNG3_Sub002] (Eterna round: R96, puzzle: Exclusion NG 3)”: the “apparent KD of MS2 coat protein” value under setting [1] was 156 nM.

Turning to “ACAUGAGGAUCACCCAUGUCAGGCUGGUCCGCUCCGGCUGUUGAGGAUAUAGCACGGUGUCCGCGCUAGAAGGUGAGGGCCGGC [Aenatbe mod 31] (Eterna round: R96, puzzle: Exclusion NG 3)”, the “apparent KD of MS2 coat protein” value reads like this: (input ligand: FMN 200 uM) 24.8 nM; under setting [1], 15.7 nM; (input ligand: none) 26.4 nM.

For the sequence “ACAUGAGGAUCACCCAUGUCCGGCUGGUCUGGUCCGGCUGUCGAGGAUAUAGUCCGGUGUUCGCGCUAGAAGGCGGGAGCUGGA [Aenatbe mod 50] (Eterna round: R96, puzzle: Exclusion NG 3)”, the “apparent KD of MS2 coat protein” value is, setting by setting: (input ligand: FMN 200 uM) 144 nM; under setting [1], 62.2 nM; (input ligand: none) 85 nM.

Take “ACAUGAGGAUCACCCAUGUCCGGCUGGUCUGUUCCGGCUGUCGAGGAUAUAGUCCGGUGUUCGCGCUAGAAGGCGGGAGCUGGA [Aenatbe mod 51] (Eterna round: R96, puzzle: Exclusion NG 3)”: the “apparent KD of MS2 coat protein” value is, setting by setting: (input ligand: FMN 200 uM) 67.5 nM; under setting [1], 34.5 nM; (input ligand: none) 46.2 nM.

In the case of “ACAUGAGGAUCACCCAUGUCCGGCUGGUCUGUUUCGGCUGUCGAGGAUAUAGUUCGGUGUUCGCGCUAGAAGGUGGGAGCUGGC [Aenatbe mod 58] (Eterna round: R96, puzzle: Exclusion NG 3)”, the “apparent KD of MS2 coat protein” value is 160 nM (input ligand: FMN 200 uM), 106 nM under setting [1] and 134 nM (input ligand: none).

With “ACAUGAGGAUCACCCAUGUCGAGUACAUGAGGAUCACCCAUGUAGGAUAUGGUUCGCUUUGCGUGCUAGAAGGAUAUGUGUUGC [salish99_ExNG3_r04_509] (Eterna round: R96, puzzle: Exclusion NG 3)”, the “apparent KD of MS2 coat protein” value reads like this: (input ligand: FMN 200 uM) 351 nM; under setting [1], 199 nM; (input ligand: none) 241 nM.

Consider “ACAUGAGGAUCACCCAUGUCGGGCUGGUCCGCUCCGGCUGUUGAGGAUAUAGCCCGGUAUCCGCGCUAGAAGGUGAGGGCCGGC [Aenatbe mod 29] (Eterna round: R96, puzzle: Exclusion NG 3)”, for which the “apparent KD of MS2 coat protein” value (input ligand: FMN 200 uM) amounted to 35.6 nM, the “apparent KD of MS2 coat protein” value under setting [1] was determined as 29.5 nM and the “apparent KD of MS2 coat protein” value (input ligand: none) turned out to be 31.4 nM.

As for “ACAUGAGGAUCACCCAUGUCUGGCUGGUCCGCUCCGGCUGUUGAGGAUAUAGCUCGGUGUCCGCGCUAGAAGGUGAGGGCCGGC [Aenatbe mod 33] (Eterna round: R96, puzzle: Exclusion NG 3)”, the “apparent KD of MS2 coat protein” value is, setting by setting: (input ligand: FMN 200 uM) 22.4 nM; under setting [1], 18.6 nM; (input ligand: none) 25.1 nM.

For the sequence “ACAUGAGGAUCACCCAUGUCUGGCUGGUCCGUCUCGGCUGUCGAGGAUAUGGCUCGGUGUCCGCGCUAGAAGGCGGGAGCCGGA [Aenatbe mod 77] (Eterna round: R96, puzzle: Exclusion NG 3)”, the “apparent KD of MS2 coat protein” value is 685 nM (input ligand: FMN 200 uM), 58.2 nM under setting [1] and 78.8 nM (input ligand: none).

Turning to “ACAUGAGGAUCACCCAUGUCUGGCUGGUCUGCUCCGGCUGUUGAGGAUAUAGUCCGGUGUUCGCGCUAGAAGGCGAGGGCUGGA [Aenatbe mod 42] (Eterna round: R96, puzzle: Exclusion NG 3)”, the “apparent KD of MS2 coat protein” value is, setting by setting: (input ligand: FMN 200 uM) 42.5 nM; under setting [1], 21.9 nM; (input ligand: none) 48.4 nM.

“ACAUGAGGAUCACCCAUGUCUGGCUGGUCUGCUCCGGCUGUUGAGGAUAUAGUUCGGUGUUCGCGCUAGAAGGUGAGGGCUGGC [Aenatbe mod 37] (Eterna round: R96, puzzle: Exclusion NG 3)”: the “apparent KD of MS2 coat protein” value (input ligand: FMN 200 uM) was found to be 32.2 nM, the “apparent KD of MS2 coat protein” value under setting [1] worked out at 23.1 nM and the “apparent KD of MS2 coat protein” value (input ligand: none) worked out at 35.6 nM.

Take “ACAUGAGGAUCACCCAUGUGAAAACAAUGGCUGACUUUGAGACAGGAUAUUCGUGCAUAUCAAACGAAGAAGGGUCAUUACUGG [Deportation 94 - Jieux - Exclusion NG 3] (Eterna round: R96, puzzle: Exclusion NG 3)”: the “apparent KD of MS2 coat protein” value reads like this: (input ligand: FMN 200 uM) 42.2 nM; under setting [1], 26.4 nM; (input ligand: none) 37.7 nM.

Consider “ACAUGAGGAUCACCCAUGUGAAAAGAAUGGCUGACACAGAGAUAGGAUAUAUGUGCAUAUCUAACGUAGAAGGGUCAUGACUGG [Deportation 78 - Jieux - Exclusion NG 3] (Eterna round: R96, puzzle: Exclusion NG 3)”, for which the “apparent KD of MS2 coat protein” value under setting [1] came to 26.5 nM.

On to “ACAUGAGGAUCACCCAUGUGACAAUAAUGGCUGAUACAGAAACAGGAUAUUCGUGAAUAUCUAACGAAGAAGGGUUAUGACUGG [Deportation 68 - Jieux - Exclusion NG 3] (Eterna round: R96, puzzle: Exclusion NG 3)”, for which the “apparent KD of MS2 coat protein” value by setting is: (input ligand: FMN 200 uM) 36.4 nM; under setting [1], 41 nM; (input ligand: none) 44 nM.

Consider “ACAUGAGGAUCACCCAUGUGACAAUAAUGGCUGAUACAGAGACAGGAUAUAGGUGCAUAUCUAACCUAGAAGGGUCAUGACUGG [Deportation 72 - Jieux - Exclusion NG 3] (Eterna round: R96, puzzle: Exclusion NG 3)”, for which the “apparent KD of MS2 coat protein” value reads like this: (input ligand: FMN 200 uM) 29.1 nM; under setting [1], 30.6 nM; (input ligand: none) 36.6 nM.

Turning to “ACAUGAGGAUCACCCAUGUGACAAUAAUGGCUGAUAUAGAAACAGGAUAUUCGUGAAUAUCUAACGAAGAAGGGUUAUGACUGG [Deportation 67 - Jieux - Exclusion NG 3] (Eterna round: R96, puzzle: Exclusion NG 3)”, the “apparent KD of MS2 coat protein” value (input ligand: FMN 200 uM) is 49 nM, the “apparent KD of MS2 coat protein” value under setting [1] turned out to be 38.3 nM and the “apparent KD of MS2 coat protein” value (input ligand: none) was determined as 51.8 nM.

Consider “ACAUGAGGAUCACCCAUGUGACCACAAUGGCUGAUGUAACAACAGGAUAUGCGUGAAUAUCUAACGCAGAAGGGUUUUGACUGG [Deportation 59 - Jieux - Exclusion NG 3] (Eterna round: R96, puzzle: Exclusion NG 3)”, for which the “apparent KD of MS2 coat protein” value came out at 84.5 nM (input ligand: FMN 200 uM), 71.5 nM under setting [1] and 91.1 nM (input ligand: none).

Turning to “ACAUGAGGAUCACCCAUGUGACCACAAUGGCUGAUGUAACGACAGGAUAUUCGUGAAUAUCUAACGAAGAAGGGUCAUGACUGG [Deportation 62 - Jieux - Exclusion NG 3] (Eterna round: R96, puzzle: Exclusion NG 3)”, the “apparent KD of MS2 coat protein” value by setting is: (input ligand: FMN 200 uM) 98.8 nM; under setting [1], 52.7 nM; (input ligand: none) 60.2 nM.

For “ACAUGAGGAUCACCCAUGUGACCACGAUGGCUGAUGUAGACCUAGGAUAUGUGUGAAUAUCUAUCACAGAAGGAGGUUGACUGG [Deportation 51 - Jieux - Exclusion NG 3] (Eterna round: R96, puzzle: Exclusion NG 3)”, the “apparent KD of MS2 coat protein” value (input ligand: FMN 200 uM) was determined as 44.4 nM, the “apparent KD of MS2 coat protein” value under setting [1] was found to be 34.3 nM and the “apparent KD of MS2 coat protein” value (input ligand: none) is 42.7 nM.

As for “ACAUGAGGAUCACCCAUGUGACCACGAUGGCUGAUGUAGAGAUAGGAUAUGUGUGAAUAUCUAUCACAGAAGGAUCUUGACUGG [Deportation 53 - Jieux - Exclusion NG 3] (Eterna round: R96, puzzle: Exclusion NG 3)”, the “apparent KD of MS2 coat protein” value was 25.2 nM (input ligand: FMN 200 uM), 22.4 nM under setting [1] and 28.5 nM (input ligand: none).

Regarding “ACAUGAGGAUCACCCAUGUGCACGUAAUGGCUCAUGUAGAGUGAGGAUAUGUGUGACGAACGAGCACAGAAGGCACAAGACUGG [Deportation 13 - Jieux - Exclusion NG 3] (Eterna round: R96, puzzle: Exclusion NG 3)”, the “apparent KD of MS2 coat protein” value reads like this: (input ligand: FMN 200 uM) 116 nM; under setting [1], 67.3 nM; (input ligand: none) 97.4 nM.

“ACAUGAGGAUCACCCAUGUGCCCAUCUAGCACAUGUCCUCGCUAGGAUAUGUAGGCCUCGACGCCGCAGAAGGAGCUAAAAGAG [Raatlaan] (Eterna round: R96, puzzle: Exclusion NG 3)”: the “apparent KD of MS2 coat protein” value was 129 nM (input ligand: FMN 200 uM), 44.6 nM under setting [1] and 64.5 nM (input ligand: none).

Take “ACAUGAGGAUCACCCAUGUGCCCAUCUAGCACAUGUCCUCGCUAGGAUAUGUAGGCCUCGAGGCCGCAGAAGGAGCUAAAAGAG [Atgequa] (Eterna round: R96, puzzle: Exclusion NG 3)”: the “apparent KD of MS2 coat protein” value (input ligand: FMN 200 uM) is 453 nM, the “apparent KD of MS2 coat protein” value under setting [1] is 82.8 nM and the “apparent KD of MS2 coat protein” value (input ligand: none) stood at 127 nM.
